From patent US9745384B2, “Peptides useful for modulating histone demethylase function” (The Brigham and Women's Hospital, Inc., priority 2012, dated 2017)
Ends that are not written are not given here.

Legend:
[1] = tested on: CCND1 and CCNE1 expression; assay: CCND1 and CCNE1 expression in breast cancer cells; format: cell-based; conditions: overexpression in cells (FIG. 25C)
From the text: We first established stable MDA-MB-231 cell lines that express similar levels of the mutant or the wild-type full-length NPAC from cDNAs introduced with silent mutations and resistant to NPAC shRNA (data not shown). […] Thus, mutation of the LSD2-interacting residues F218, L219 and L291 of NPAC can disrupt LSD2 and NPAC functions in vivo.
We next examined if it is possible to use a small molecule to manipulate the interaction between NPAC and LSD2, thus affecting target gene expression. We have shown that a short mutant NPAC peptide (residues 214-225) can interact with LSD2 with high affinity, however, lost its cofactor activity. NPAC214-225.F217A is expected to be able to competitive inhibit the interaction between endogenous NPAC and LSD2, without stimulating LSD2 demethylase activity (FIG. 25A, right). […] Thus, unable to stimulate the histone demethylase activity of endogenous LSD2, this mutant peptide is a potent inhibitor of LSD2 function by competitively inhibiting LSD2 binding by endogenous NPAC.

[2] = tested on: double strand DNA; assay: DNA binding assay (GST-pulldown)
Procedure: 5-10 μg GST and GST-tagged NPAC truncation proteins were incubated with 1 μg linearized plasmid DNA overnight at 4° C. in 50 mM Tris pH 7.4, 200 mM NaCl, 0.2% NP-40, 1 mM MgCl2, 1 mM EDTA, 1 mM DTT, 0.02 mM ZnSO4. After extensive washing with the same buffer, bound DNA was eluted by incubating with 100 μl 10 mM Tris pH 8.0, 1% SDS for 15 minutes at 65° C. Pulldown DNA was purified using Qiagen PCR purification kit, resolved by agarose gel electrophoresis and stained with Ethidium Bromide.

[3] = tested on: nucleosomes purified from HeLa; assay: Nucleosome pulldown by GST-NPAC proteins; format: binding
Procedure: Nucleosomes were purified from HeLa as previously described (Umlauf et al., 2004). To examine nucleosome binding selectivity of NPAC, 5 μg GST fusion protein bound to glutathione agarose were incubated with 20 μg nucleosomes overnight at 4° C. in nucleosome binding buffer (50 mM NaPO4 pH 7.4, 200 mM NaCl, 0.5% NP-40, 5% glycerol, 10 μM ZnSO4, 1 mM MgCl2, 1 mM DTT, 0.1 mM PMSF). After washing 4 times with the same buffer at 4° C., the beads were boiled in 1×SDS sample loading buffer and elute was resolved by 15% SDS-PAGE for immunoblot analysis or coomassie staining.
For free-DNA competition assays, human genomic DNA was purified from HeLa cells and fragmented to an average size around 300 bp by sonication. Equal amounts of GST-NPAC.d5 bound to glutathione beads were pre-incubated with 0, 5, 10, 25 μg genomic DNA fragments in nucleosome binding buffer for 30 minutes at room temperature, and equal amounts of nucleosomes were added and incubated overnight at 4° C. After extensive washing, GST-NPAC.d5 and bound nucleosomes were eluted by boiling in 1×SDS sample loading buffer, resolved by SDS-PAGE and stained with coomassie blue.

[4] = biological target: T1, His-LSD2 (Homo sapiens, UniProt Q8NB78); assay: Nucleosome demethylation assay (NPAC cofactor activity for LSD2, immunoblot); format: biochemical; conditions: threshold dosage of His-LSD2; nucleosomes purified from HeLa
T1 construct: typically 0.5 μg full-length His-LSD2; made in house; host or cells: Sf9 insect cells
T1 sequence (Q8NB78 1-822): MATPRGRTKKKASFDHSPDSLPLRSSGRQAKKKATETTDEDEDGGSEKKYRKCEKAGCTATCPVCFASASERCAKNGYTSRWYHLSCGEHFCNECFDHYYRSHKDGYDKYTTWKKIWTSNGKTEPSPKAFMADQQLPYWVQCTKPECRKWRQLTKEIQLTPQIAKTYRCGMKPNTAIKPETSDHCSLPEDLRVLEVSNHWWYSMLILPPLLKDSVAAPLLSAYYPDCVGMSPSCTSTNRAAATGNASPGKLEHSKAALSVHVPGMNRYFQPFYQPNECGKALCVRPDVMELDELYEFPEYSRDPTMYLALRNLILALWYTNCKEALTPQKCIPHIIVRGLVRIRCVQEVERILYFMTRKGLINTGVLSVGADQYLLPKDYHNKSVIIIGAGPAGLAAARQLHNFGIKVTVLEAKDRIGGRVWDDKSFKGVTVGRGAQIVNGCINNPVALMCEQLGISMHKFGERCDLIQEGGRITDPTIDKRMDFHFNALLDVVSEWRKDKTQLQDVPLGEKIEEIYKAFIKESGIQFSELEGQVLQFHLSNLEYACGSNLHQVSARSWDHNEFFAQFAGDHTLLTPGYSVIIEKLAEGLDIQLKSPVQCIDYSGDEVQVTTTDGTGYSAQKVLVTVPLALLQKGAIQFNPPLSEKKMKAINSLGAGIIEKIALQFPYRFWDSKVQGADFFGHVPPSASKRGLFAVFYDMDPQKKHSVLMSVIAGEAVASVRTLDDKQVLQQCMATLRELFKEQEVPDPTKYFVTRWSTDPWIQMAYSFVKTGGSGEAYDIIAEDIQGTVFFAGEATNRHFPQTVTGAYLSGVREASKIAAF
Procedure: For nucleosome demethylation assays, typically 0.5 μg full-length His-LSD2, 1 μg NPAC protein or peptides, and 2 μg nucleosomes purified from HeLa were used, and demethylation efficiency was analyzed by SDS-PAGE electrophoresis and immunoblot using methylation specific anti-histone H3 antibodies as previously described (Shi et al. 2004).

[5] = biological target: T1, His-LSD2; assay: GST-pulldown of His-LSD2 by GST-NPAC proteins; format: binding; conditions: coomassie blue staining
Procedure: […] GST or GST-NPAC fusion proteins were bound to glutathione agarose, and were incubated with 2 μg full-length His-LSD2 overnight in 50 mM NaPO4 pH 7.4, 150 mM NaCl, 0.5% NP-40, 5% glycerol, 10 μM ZnSO4, 1 mM MgCl2, 1 mM DTT, 0.1 mM PMSF at 4° C. After washed 4 times with same buffer at 4° C., glutathione agarose beads were boiled in 1×SDS sample loading buffer. Elute was resolved on a 15% SDS-PAGE gel and stained by coomassie blue.

Question: Which results are given for “GFP-NPAC214-225.F217A: GFP fusion of mutant NPAC peptide (residues 214-225) F217A, overexpressed in cells ({GFP}-DPHAHHFLLSQT; UniProt Q49A26 214-225, looked up, variant F217A)”?
Answer: CCND1 and CCNE1 expression on ectopic expression of the peptide [1]: consistently down regulates CCND1 and CCNE1 expression; CCND1 and CCNE1 expression on ectopic expression of the peptide ([1]; listed as NPAC.214-215.F217A peptide): down regulates CCND1 and CCNE1 expression

B1: NPAC.d5: Example 2 GST-NPAC truncation, residues 1-120 (protein, UniProt Q49A26 1-120, looked up, fragment)
chain: MAAVSLRLGDLVWGKLGRYPPWPGKIVNPPKDLKKPRGKKCFFVKFFGTEDHAWIKVEQLKPYHAHKEEMIKINKGKRFQQAVDAVEEFLRRAKGKDQTSSHNSSDDKNRRNSSEERSRP
modifications: GST tag
Question: With B1 as the molecule, how does the “DNA binding (GST-pulldown)” value [2] read?
Answer: Its value is “pulls down DNA nearly as efficiently as NPAC.d1”.

Question: What about the “Nucleosome binding (GST-pulldown)” value [3] of the same molecule?
Answer: The value was “can readily do so”.

Question: And the “Nucleosome binding in the presence of increasing free double strand DNA” value ([3]; 0, 5, 10, 25 μg genomic DNA fragments)?
Answer: The value was “compromised the nucleosome binding ability of NPAC.d5 in a dose dependent manner”.

B2: NPAC.d3: Example 2 GST-NPAC truncation, residue 81-553 (protein, UniProt Q49A26 81-553, looked up, fragment)
chain: QAVDAVEEFLRRAKGKDQTSSHNSSDDKNRRNSSEERSRPNSGDEKRKLSLSEGKVKKNMGEGKKRVSSGSSERGSKSPLKRAQEQSPRKRGRPPKDEKDLTIPESSTVKGMMAGPMAAFKWQPTASEPVKDADPHFHHFLLSQTEKPAVCYQAITKKLKICEEETGSTSIQAADSTAVNGSITPTDKKIGFLGLGLMGSGIVSNLLKMGHTVTVWNRTAEKCDLFIQEGARLGRTPAEVVSTCDITFACVSDPKAAKDLVLGPSGVLQGIRPGKCYVDMSTVDADTVTELAQVIVSRGGRFLEAPVSGNQQLSNDGMLVILAAGDRGLYEDCSSCFQAMGKTSFFLGEVGNAAKMMLIVNMVQGSFMATIAEGLTLAQVTGQSQQTLLDILNQGQLASIFLDQKCQNILQGNFKPDFYLKYIQKDLRLAIALGDAVNHPTPMAAAANEVYKRAKALDQSDNDMSAVYRAYIH
modifications: GST tag
Question: Which “Nucleosome binding (GST-pulldown)” value [3] does the source give for B2 here?
Answer: The value was “abolish the ability to interact with nucleosomes”.

B3: NPAC.d2: Example 2 GST-NPAC truncation, residues 1-250 (protein, UniProt Q49A26 1-250, looked up, fragment)
chain: MAAVSLRLGDLVWGKLGRYPPWPGKIVNPPKDLKKPRGKKCFFVKFFGTEDHAWIKVEQLKPYHAHKEEMIKINKGKRFQQAVDAVEEFLRRAKGKDQTSSHNSSDDKNRRNSSEERSRPNSGDEKRKLSLSEGKVKKNMGEGKKRVSSGSSERGSKSPLKRAQEQSPRKRGRPPKDEKDLTIPESSTVKGMMAGPMAAFKWQPTASEPVKDADPHFHHFLLSQTEKPAVCYQAITKKLKICEEETGSTS
modifications: GST tag
Question: With B3 as the molecule, how does the “Nucleosome binding (GST-pulldown)” value [3] read?
Answer: Its value is “strong binding to nucleosomes”.

B4: NPAC.d6: Example 2 GST-NPAC truncation, residues 1-81 (protein, UniProt Q49A26 1-81, looked up, fragment)
chain: MAAVSLRLGDLVWGKLGRYPPWPGKIVNPPKDLKKPRGKKCFFVKFFGTEDHAWIKVEQLKPYHAHKEEMIKINKGKRFQQ
modifications: GST tag
Question: What does the source list for B4?
Answer: DNA binding (GST-pulldown) [2]: unable to interact with DNA; Nucleosome binding (GST-pulldown) [3]: failed to interact with nucleosomes

B5: NPAC.d4: Example 2 GST-NPAC truncation, residue 181-553 (protein, UniProt Q49A26 181-553, looked up, fragment)
chain: LTIPESSTVKGMMAGPMAAFKWQPTASEPVKDADPHFHHFLLSQTEKPAVCYQAITKKLKICEEETGSTSIQAADSTAVNGSITPTDKKIGFLGLGLMGSGIVSNLLKMGHTVTVWNRTAEKCDLFIQEGARLGRTPAEVVSTCDITFACVSDPKAAKDLVLGPSGVLQGIRPGKCYVDMSTVDADTVTELAQVIVSRGGRFLEAPVSGNQQLSNDGMLVILAAGDRGLYEDCSSCFQAMGKTSFFLGEVGNAAKMMLIVNMVQGSFMATIAEGLTLAQVTGQSQQTLLDILNQGQLASIFLDQKCQNILQGNFKPDFYLKYIQKDLRLAIALGDAVNHPTPMAAAANEVYKRAKALDQSDNDMSAVYRAYIH
modifications: GST tag
Question: B5 was tested. Which “Nucleosome binding (GST-pulldown)” value [3] did it give?
Answer: The value was “abolish the ability to interact with nucleosomes”.

B6: NP.d8: NPAC residues 188-252 (protein)
chain: TVKGMMAGPMAAFKWQPTASEPVKDADPHFHHFLLSQTEKPAVCYQAITKKLKICEEETGSTSIQ
modifications: also: fused to dimerising Fc or GST
Question: Which “Cofactor activity: stimulation of LSD2 demethylation of nucleosomal H3K4me2” value [4] does the source give for B6 here?
Answer: Its value is “significantly enhances LSD2 histone demethylase activity on nucleosomal substrates”.

Question: What about the “LSD2 binding (GST-pulldown)” value [5] of the same molecule?
Answer: Its value is “sufficient for LSD2 interaction”.
